Laboratory results as given in patent US20160000860A1 (University of California, published 2016).
Bridges are numbered along the chain shown (N, C = ends). Where no end group is shown, it is not given here.

T1: recombinant human osteogenic protein-1 (rhOP-1, rhBMP-7) (human, UniProt P18075 293-431)
T1 construct: Amine-coupled to a CM-5 sensor chip
T1 sequence (looked up): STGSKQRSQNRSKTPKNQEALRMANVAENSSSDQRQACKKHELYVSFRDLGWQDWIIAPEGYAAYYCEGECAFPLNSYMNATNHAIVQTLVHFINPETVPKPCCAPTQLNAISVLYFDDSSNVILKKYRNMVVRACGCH

T2: spp24 (secreted phosphoprotein, 24 kD), the parental protein of BBP (Bos taurus (Bovine), UniProt Q27967 24-203)
T2 construct: also called the related protein
T2 sequence: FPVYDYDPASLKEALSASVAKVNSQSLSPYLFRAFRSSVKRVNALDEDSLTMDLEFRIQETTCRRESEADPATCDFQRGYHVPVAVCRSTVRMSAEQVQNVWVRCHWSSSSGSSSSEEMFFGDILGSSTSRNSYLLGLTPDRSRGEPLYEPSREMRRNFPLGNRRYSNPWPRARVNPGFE

B1: BMP Binding Peptide (BBP), cyclized synthetic 19 amino acid peptide (peptide)
peptide: CRSTVRMSAEQVQNVWVRC
modifications: disulfide 1-19 (inferred)
notes: it is treated here as the same bovine cyclic peptide; also called cyclized BBP
B2: recombinant human bone morphogenetic protein-2 (rhBMP-2) (ligand, UniProt P12643 283-396, looked up)
chain: QAKHKQRKRLKSSCKRHPLYVDFSDVGWNDWIVAPPGYHAFYCHGECPFPLADHLNSTNHAIVQTLVNSVNSKIPKACCVPTELSAISMLYLDENEKVVLKNYQDMVVEGCGCR
notes: Amine-coupled to a CM-5 sensor chip

Legend:
[1] = target: B2; test: cell-based or functional assay
[2] = target: B2; test: SPR (Biacore X), ligand amine-coupled to CM-5 chip, Langmuir analysis
Description: (§1) The supernatant was decanted and used for analyses. Protein concentrations were determined using UV spectroscopy at an absorbance of 280 nm. Extinction coefficients were calculated using ProtParam tool (www.expasy.ch/tools/protparam.html). Flow rates ranged from 5 to 50 μl/min, and injection volumes were 20 to 100 μl. To ensure uniformity, an effort was made to react sufficient ligand to the chip to give a baseline value of about 2500 RU (response units). The kinetic constants kₐ (on rate, association constant, “recognition”) and kd (off rate, dissociation constant, “stability”) as well as the equilibrium constant KD (equilibrium constant, “affinity”) were determined by a Langmuir analysis using BIAevaluation software (version 3.2) installed on the instrument by the manufacturer.

[3] = target: recombinant human transforming growth factor-beta (rhTGF-β) (human); test: as above
Sequence of recombinant human transforming growth factor-beta (rhTGF-β) (human) (P01137 279-390): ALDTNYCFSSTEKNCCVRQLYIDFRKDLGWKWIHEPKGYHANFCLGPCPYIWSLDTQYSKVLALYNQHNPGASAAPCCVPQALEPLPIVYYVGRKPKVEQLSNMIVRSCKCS
Description: as §1

[4] = target: T1, recombinant human osteogenic protein-1 …; test: as above
Description: as §1

[5] = target: B2; test: SPR (Biacore X), rhBMP-2 on CM-5 chip, peptide as analyte; rhBMP-2 affixed to the chip; cyclized BBP, not reduced
[6] = target: T2, spp24 (secreted phosphoprotein, 24 kD), …; test: SPR (Biacore X), ligand amine-coupled to CM-5 chip, Langmuir analysis
Description: as §1

Binder | retention of labeled rhBMP-2 in collagen sponge implants in rodent muscle pouches [1] [fold] | Kd [2] [nM] | Kd [3] [nM] | Kd [4] [nM] | Kd [5] [nM] | Kd [6] [nM] | koff [6] [s⁻¹] | kon [6] [M⁻¹ s⁻¹]
B1 | ~2 | 53.3 | 68 | 1160 | ~30000 | – | – | –
B2 | – | – | – | – | – | 17.7 | 0.0055 | 311000
